In the nanobody polyreactivity screen of Harvey et al. (2022):

Assay: yeast display, Sf9 membrane polyspecificity reagent, FACS + sequencing; frameworks hold sequencing errors
Summary of the method: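 In a synthetic yeast display library (Saccharomyces cerevisiae BJ5465), nanobody expression was induced with galactose for 36–48 hours. FACS gates were set low and high (top ~1%) using anti-HA fluorescence for expression and streptavidin fluorescence for binding of the Sf9 membrane reagent. Each polyreactivity label is drawn from the gate of origin.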

| Sequence | polyreactivity (PSR sort gate) |
| --- | --- |
| QVQLVESGGGLVQAGGSLRLSCAASGSILKGYALGWYRQAPGKERELVAAITSSGGRTYYADSVKGRFTISRDNAKNTVYLQMNSLKPEDTAVYYCNALGGQWARYDYWGQGTQVTVSS | high polyreactivity |
| QVQLVESGGGLVQAGGSLRLSCAASGSIFYSNTMGWYRQAPGKERELVAAISSSSGRTYYADSVKGRFTISRDNAKNTGFLQMNSLKPEDTAVYYCARRYGWGQGTQVTVSS | high polyreactivity |
| QVQLVESGGGLVQAGGSLRLSCAASGIFAWNAMGWYRQAPGKERELVAAISWSGGSTYADSVKGRFTISRDNAKNTVYLQMNSLKPEDTAVYYCAKVSSLTSKSDYSGQGTQVTVSS | low polyreactivity |
| QVQLVESVGGLVQAGGSLRLSCAASGSIFIANAIGWYRQAPGKERELVAAISWSGGRTYYADSVKGRFTISRDNAKNTVYLQMNSLKPEDTAVYYCAAVYGAYDSGRFLSFGNFDYWGQGTQVTVSS | high polyreactivity |
| QVQLVESGGGLVQAGGSLRLSCAASGRTFALYALGRYRQAPGKERELVASISWRGGSTYYADSVKGRFTISRDNANNTVYVQMNRLKPEDTAVSYCAADTGSYGPLIYRLEYWGQGTQVNVSS | low polyreactivity |
| QVQLVESGGGLVQAGGSLRLSCAASGFTFDGYAIGWYRQAPGKERDLVAAISGAGGSTYYADSVKGRFTISRDNAKNTVYFQMNSLKPEDTAFYYCAAEWIADLSSPVWYDYWGQGTQVTVSS | high polyreactivity |
| QVQLVESGGGLFKEGGSLRLSCAASASYFWFNAMGWYRQAPGKEREFGASISRSGGTTYYADSVKGRFTISRDNAKNTVYLQMKSVIPEDTAVYYCNARAFGTGVGTGYFGKDRYDYWGQGSQVTVSS | low polyreactivity |
| QVQLVESGVGLVQAGGSLRLSCAASGFIFSSYAMGWYRQAPGKERELVAAISRSGGRTYYADSVKGRFTISRDNAKNTVYLQMNSLKPEDTAVYYCDATWLGTDGDDYWGQGTQVTVSS | high polyreactivity |
| QVQLVESGGGLVQAGGSLRLICAASGSIFKYYAMGLYRQAPGKERDLVAANRWSGGSTYYADSVKGRFTISRDNAKNTVYLQMNRLKPEDTAVYYCAAEYFNQNTRQGYDYWGQGTQVTVSS | low polyreactivity |
| QVQLVESGGGLVQAGGSLRLSCAASGFIFFPYVMGWYRQAPGKEREFVAAITGDGGSTYYADSVKGRFTISRDNAKNTVYLQMNSLKPEDTAVYYCAAEFGLWYWDWAASEDYWGQGTQVTVSS | high polyreactivity |
| HVQLLESGGGLVQAGGSLRLSCAASGSTFVYYAMGWYRQAPGKERELVAVITRGGRTYYADSVKGRFTISRDNAKTTVYLQMNSVKPEDSEVYYCNKVTPIYHDTVLDYWGQGTQVTVSS | high polyreactivity |
| QVQLVESGGGLVQAGGSLRLSCAASGRTFGYNAMGWYRQAPGTERELVAGITGTGGTTNYADSVKGRFTISRDNAKNTVYLQMNSLKPEDTAVYYCNKDYDVSSEKEPLGYWGQGTQVTVSS | low polyreactivity |
| QVQLVESGGGLVQAGGSLRLSCAASGRILYYYAMGWYRQAPGKERELVAAINSSGGSTYYADSVKGRFTISRDNAKNTVYLQMNSLKPEDTAVYYCAALRGIVLWYPPSYFRYDYWGQGTQVTVSS | high polyreactivity |
| QVQLVESGGGLVQAGGSLRLSCAASGLTFRGYAMGWYRQAPGKERELVAAITSSAGRTYYADSVKGRFTISRDNAKNTVYLQMNSLKPEDTAVYYCAAEYASWFGSMNYWGQGTQVTVSS | high polyreactivity |
| QVQLVESGGGLVQAGGPLRLSCAASGIIFGFYAMGWYRQPPGKERELVADITSSGGSTYYADSVKGRFTISRDNAKNTVYLQINSLKPEDTAVYYCAADGVPGGPPVEGMDYWGQGTQVTVSS | low polyreactivity |
| QVQLVESGGGLVQAGGSLRLSCAASGITFYDKAMGWYREAPGKERELVAGISYDGDSTYADSVKGRFTISRDNAKNTVYLQMNSLKPEDTAVYYCAALGPYDWLWAGDYWGQGTQVTVSS | low polyreactivity |
| QVQLVESGGGLVQAGGSLRLSCAASGSTFGYYAMGWYRQAPGKERELVAAISYRSGSTYYADSVNGRFTISRDNAKNTVYLQMNSLKPEDTAVYYCAPVIQRQQRYEYWGQGTQVTVSS | high polyreactivity |
| QVQLVESGGGLVQAGGSLRLSCAASGSILGYYAMGWYRQAPGKERELVAAITASGGSTYYADSVKGRFTISRDNAKNTVYLQMNSLKPEDTAVYYCAAQYYATYGYWGQGTQVTVSS | low polyreactivity |
| QVQLVESGGGLVQAGGSLRLSCAASGSIITWNAMGWYRQAPGKERELVAAIDWDGGSTYYADSVKGRFTISRDNAKNTVYLQMNSLKPEDSAVYYCAATYGWYTGRYPSGHYYYWGQGTQVTVSS | low polyreactivity |
| QVQLVESGGGLVQAGGSLRLSCAASGSTLVTYAMGWSRQAPGTERELVAAISYSGGSTYADSVKGRFTISRDNAKNTVYLQMNSLKPEDTAVYYCNSDTSVDVRFDYWGQGTQVTVSS | low polyreactivity |
| QLQLVESGGGLVQAGGSLRLSCAASGLTICRYAMAWYRQAPGKEREFVATISQNGGRTYYADSVKGRFTISRDNAKNTVYLQMNSLKPEDTAVYYCAADDWRWGYDYWGQGTQVTVSS | high polyreactivity |
| QVQLVESGGGLVQAGGSLRLSCAASGSTFYVNAMGWYRQAPGKERELVAAISSGGSTYYADSVKGRFTISRDNAKNTVYLQMNSLKPEDTAVYYCAAASPWGSDYDYWGQGTQVTVSS | low polyreactivity |

| Sequence | polyreactivity (PSR sort gate) |
| --- | --- |
| QVQLVDSGGGLVQAGGSLRLSCAASGSTFSVYAMVWYRQAPGKERELVAAISKRGTSTYYADSLKGRFTISRDYAKNTLYLQKNSLKPEDTAVYYCAAEAYRPSPFYYWGQGTQVTFSS | high polyreactivity |
| QVQLVESGGGLVQAGGSLRLSCAASGSIFLLYAMGWYSQAPGKVRELVAAISRSGDSTHYADSVKGRFTISRDNAKNTVYLQMNSLKPEDTAVYYCAADGYDPYGGLYDYWGQGTQVTVSS | low polyreactivity |
| QVQLVESGGGLVQAGGSLRLSCAASGLIFTRYTMGWYRQAPGKERELVAGISWSGGRTYYADSVKGRFTISRDKAKYTVYLQMNSLKPEDTAVYYCAADSYYSRAYDYWGQGTQVTVSS | high polyreactivity |
| QVKLVESGGGLVQAGGSLRLSCAASGFTFSYYAMGWYRQAPGKERELVAAISYSGSATYYADSVKVRFTISRDNAKNTVYLQLNSLIPEDTAVYYCNARGATRGLTAYTYDSWGQGTQVTVSS | high polyreactivity |
| QVQLVESGGALVQAGGSLRLSCAASGSIFSEYAMGWYRQAPGKERELVAAISRSGGTTYYADSVKGRFTISRDNAKNTVYLQMNSLKPEDTAVYYCAARYFRGSYPMGYWGQGTQVTVSS | high polyreactivity |
| QVHLVESGGGLVQAGGSLRLSCAASGRTFAPNAMGWYIQAPGKERELVAAISYNSGTTYYADSVKGRFTISRDNAKNTVYLQMNSLKPEDTAVYYCAARRYYKYDWGQGTQVTVSS | high polyreactivity |
| QVQLVESGGGLVQAGGSLRLSCAASGRTFAVNAMGWYRQAPGKESELVAAISQRAGRTYYADSVKGRFTISRDNAKNTVYLQMNSLKPEDTAVYYCNVVGFRSRVGSRGYWGQGTQVTVSS | high polyreactivity |
| QVQLVESGGGLVQAGGSLRLSCAASGSTFSVNAMGWYIQAPGKEREFVAAIRWPGGSTYYADSVKGRFTISRDNAKNTVYLQLNSLKPEDTAVYYCAARIKYRYDWGQGTQVTVSS | low polyreactivity |
| QVQLVESGGCLVQAGGSLRLTCAASGSTFDRKARGWYRQAPGKERELVAAITKSGGSTYYADSVKGRFTISRDNAKNTVYLQMNSLKPEDTAVYYCKEFYRAVYPYYYWGQGTQVTVSS | low polyreactivity |
| QDQLVESRGGLVQAGGSLRISCAASGSPFYRNAKGWNTQAPGKERELVATISTGGVSTYYADSVKGRFTISRDNAKNTVYLQMNSLKPEDTAVYYCAQRTVYLSNLDYWGQGTQVTVTS | low polyreactivity |
| QVQLVESGGGLVQAGGSLRISCAASGNIFGIYTMGWYRQAPGKEREFFAVISLSGTSTYYADSVKGRFTISRDNAKNTVYLQMNSLKPEDTAVYYCNARTPHNKGRRRAYDYWGLGTQVTVSS | high polyreactivity |
| QVQLVESGGGLVQAGGSLRLSGAASGRYLFTWTAMGWYRQAPGIERELVAGITSGGNTYYADSVKGRFTISRDNPKNTVYLQMNSLKPEDTAVYYCAKGDGRRGDPYSRYDYCGQGTQVTVSS | low polyreactivity |
| QVQLVESGGGLVQAGGSLRLSCAASGFTFPFYAMGWYRQAPGKERELVAAITSRGGSTYYADSVKGRFTISRDNAKNTVYLQMNSLKPEDTAVYYCAADESGADYYYWGQGTQVTVSS | high polyreactivity |
| QDQHVESGGGLVQAGGSLRLSCAASGFTFPLKAMGWSRQAPGKERELVAVINYSDGSTYYADSVKGRFSISRDNAKNTVYLQMNSLTPEDTAVYYCAARYYTTYYWGQGTQVTVSS | high polyreactivity |
| QVQLVESGGGLDQAGGSLRLSCAASGFTFAYNARGRYRQAPGKERELVAAITTRGGGTYYADSVKGRFTISRDNAKYTVYLQMNSLKPEDTAVYYCAAKKSRYPYNYWGQGTQVTVSS | high polyreactivity |
| QVQLVESGGGLVQAGGSLRLSCAASGLTLYRYALGWYRQAPGKERELVAAISWGGGSTYYADSVKGRFTISRDNAKNTVYLQMNSLKPEDTAVYYCAAGRLLYIPRYYYWGQGTQVTVSS | high polyreactivity |
| QVQLVESGGGLVQAGGSLRLSCAASGSIFYVYAMGWYRQAPGKERELVAAITSGGSTNYADSVKGRFTISRDNAKNTVYLQMNSLKPEDTAVYYCAAAWENIWVWQEYIEYDYWGQGTQVTVSS | low polyreactivity |
| QVQLVESGGGLVQAGGSLRLSCAASGSNFSTYVMGWYRQAPGKERELVATISASDGSTYYADSVKGRFTISRDNAKNTVYLQMNSLKPEDSAVYYCAADTQEYRPTYDYWGQGTQVTVSS | low polyreactivity |
| QVQLQERGGGLVQVGGSKRLSCAASGNIFYNYSMGWYRHAQGKEREFDDTINHGTSINYADSVKGRFTISRDKATNTGYLEMNSLKPEDTAVFYCAADRSWTDNLFYWGQGSQVTVSS | low polyreactivity |
| QVQLVESGGGLVQAGGSLRLSCAASGFNFASNAMGWYRQAPGKERELVAAITKSGGRTYYADSVKGRFTISRDNAMNTVYLQMNSLKPEDTAVYYCAAKVRVVHRPYDHWGQGTQVTVSS | high polyreactivity |
| QVQLVESGGGVVQAGGSLRLSCAASGRIFDIYAMGWYRQAPGKARELVAAITRGGSTYADSVKGRFTISRDNAKYTVYLQMNSLKPEVTAVYYCAASLYSYRSPYTFYYWGQGTQVTVSS | high polyreactivity |
